± gives the standard deviation of the averaged measurements.
Test system: ATP
Experiment: switch fluorescence ratio, 500 uM ATP over buffer (Cy3 cluster intensity, sum of 5 cycles each) (fold (ratio)); higher = stronger signal-on switching upon ATP binding; sequences stand for … in TCGTCGGCAGCGTCAGATGTGTATAAGAGACAGTTTTTTTTTTTTTTTTTTTTTTTTT…TC
Details: aptamer strand: ATP DNA aptamer (quencher-CACCTGGGGGAGTATTGCGGAGGAAGG + anchor), 100 nM annealed; ATP concentration: 500 uM
Procedure, shortened: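 Clusters carrying Cy3-labelled switching strands on a modified Illumina MiSeq flow-cell were annealed to 100 nM quencher-labelled ATP aptamer and imaged in selection buffer. They were imaged again after 15 min with 500 uM ATP at 22 °C, over five buffer/ATP cycles with NaOH stripping and re-annealing in between. For each cluster, the fluorescence ratio is the summed Cy3 intensity of the target cycles divided by that of the buffer cycles, averaged per switch-domain sequence. Clusters outside 100-1000 RFU were left out.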
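Note: ATP exposure 15 min at 22 °C before imaging.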

Sequence	switch fluorescence ratio
GGAAAAGAGC	0.991 ± 0.049
GGCAGGAGGG	1.11 ± 0.22
TTGGGCGTTT	1 ± 0.043
TCAGTGCCAG	0.992 ± 0.022
AGAATGATCG	0.994 ± 0.033
CATAAAGTAG	1.02 ± 0.014
CATTGACTTT	1.02 ± 0.016
GTCGTAGGAT	0.9915 ± 0.0065
AAGCTTATGC	1.04 ± 0.085
GCCGGGGGTT	1.2 ± 0.21
TTTTTGAATC	0.983 ± 0.017
TAAGTTTTCC	1.03 ± 0.032
TAGGGCTGGC	1 ± 0.08
TTGTCGGCG	1 ± 0.013
CGAAAGTATA	1.08 ± 0.075
GAACGAACGG	1.08 ± 0.06
TTATGGGCAA	1.1 ± 0.02
AGTAACGGTA	1.04 ± 0.012
TGGCAGGCAC	1.04 ± 0.012
GTAAGGGGGC	0.984 ± 0.011
AAACTGTAAA	1.08 ± 0.045
TGCTTGTGTT	0.9912 ± 0.0064
GCGTATACGC	1.04 ± 0.041
AAGTGTCCCG	0.994 ± 0.032
TGACGGGGCG	1.03 ± 0.05
TTAGTAAGGA	1.009 ± 0.0086

Sequence	switch fluorescence ratio
CATTGTATCG	1.01 ± 0.011
TTAGGGTGAT	0.974 ± 0.059
CAAGGAGATG	1.01 ± 0.046
TTGATGTGGT	0.997 ± 0.084
GGCTGAGGGG	0.972 ± 0.042
TGGTGCAGGC	0.702 ± 0.023
ACGGGGTTTG	0.995 ± 0.018
TATTTAAAAG	1.003 ± 0.009
CATATATTT	0.975 ± 0.015
ACAGCTGAAG	1.002 ± 0.0066
GGTTGTTCTG	0.997 ± 0.015
TAAGAATTCC	1.08 ± 0.047
CGCTTAACGT	1.05 ± 0.096
ATTTGTTTTG	0.997 ± 0.053
GAGATGGGCA	1.01 ± 0.06
CTATGGGGGG	0.993 ± 0.035
AGGAAATAGT	1.05 ± 0.059
AATGCCTCAG	1 ± 0.024
CTTGATGCAG	0.996 ± 0.053
TTGGGGGGTA	0.987 ± 0.028
AGTTGATTGT	0.9895 ± 0.0076
TATTTAAGGG	1.12 ± 0.16
TTGGTAGGGT	0.995 ± 0.031
GATTTTTTTG	0.985 ± 0.037
CGCATGGGCC	1.4 ± 0.019
GTAATTTCGT	0.99733 ± 0.0004

Sequence	switch fluorescence ratio
AGTGTGTTCT	1.02 ± 0.021
CGGGTTTTCG	0.988 ± 0.018
ACGCTGAGCA	1.033 ± 0.008
CCTGGGTCGA	1.022 ± 0.0044
GTATTTTGCG	1.12 ± 0.26
GTTACGGGAC	1.24 ± 0.015
TGTGGAAAAT	1.03 ± 0.074
GATCCGGCGT	1.03 ± 0.053
GAGTCAGGGT	1.02 ± 0.011
TCCACTCTTC	0.991 ± 0.024
AACAGACCTT	1.13 ± 0.12
GGGATTGGCA	0.9798 ± 0.0092
TAGGGGGGGA	1.01 ± 0.018
GCCCTTTCGT	1.032 ± 0.0021
GTTTATTGTT	1 ± 0.047
CAGCTCTGTT	0.984 ± 0.041
TCATGAACTT	1.07 ± 0.078
ATATTGGGGA	1.01 ± 0.025
AGGGTGGGTA	0.9768 ± 0.0053
AGGTTTCCGT	1.02 ± 0.032
ATTCGTGTTT	0.978 ± 0.017
GAGAAGTTGA	1 ± 0.02
TGGGCGGGGA	1.03 ± 0.048
TTTCGGGGTA	1 ± 0.045
TGATAGGGTC	1.06 ± 0.11
TTCATATCAT	1 ± 0.03

Sequence	switch fluorescence ratio
GAACGAGGGG	1.01 ± 0.019
GGTAGTAATT	0.998 ± 0.0029
CTTCTGTGGG	1.027 ± 0.0036
GTTGCTTTGG	1.04 ± 0.017
TACTTTCGTA	0.983 ± 0.011
CGGGGGAAAA	1.03 ± 0.054
GCGTTGTGGG	1.05 ± 0.024
TCGGGTATCG	0.976 ± 0.037
TGCTAGTTCT	0.99 ± 0.016
TGTTCAGGGA	1.048 ± 0.0073
TCTTAATTTT	0.973 ± 0.024
TTTCAAATTG	0.973 ± 0.028
AGGTGGTGTG	0.984 ± 0.015
CGCTCGCCTG	1.03 ± 0.016
TGTATGTGAG	0.98 ± 0.054
CGCGAGAGGA	1.01 ± 0.016
GACTGATACC	1.17 ± 0.035
CGGGCCGGGG	1.02 ± 0.033
AAGAGACAGG	1.05 ± 0.042
TTTCGGATCA	0.9334 ± 0.0044
TTCTACCTGA	1.064 ± 0.0086
AAGAGATACG	1.04 ± 0.059
TGAATGGGCA	0.973 ± 0.024
GAGATAGGGG	0.994 ± 0.016
CTGGTTCAGG	1.026 ± 0.0082
TGCAAAGGGC	1.01 ± 0.015

Sequence	switch fluorescence ratio
GGCTTTTGGA	0.982 ± 0.014
AGGCGTAGCT	1.01 ± 0.044
TGCTCTTTCA	1 ± 0.025
TAAGGCTACA	1.01 ± 0.016
AAAAAGGGCC	1.009 ± 0.0089
TTCCTTCGAT	1.51 ± 0.062
GGCTAACGAC	1.063 ± 0.0021
AGGATGGGGG	0.997 ± 0.045
ACAGTTCCCC	1.13 ± 0.25
TTACTTCGTA	1.06 ± 0.07
TCAGTTTGGT	0.99 ± 0.017
CGCTTTTGGG	0.999 ± 0.03
CGCTGTGACT	1.02 ± 0.031
TTGGGGGTGC	0.997 ± 0.052
TGGGAATGAA	0.992 ± 0.021
AAACTGTATT	1.08 ± 0.019
TATTATCTGC	0.971 ± 0.021
TAAAAAAACG	1.1 ± 0.021
CCATGTTTGG	0.996 ± 0.028
TTGAGTTTGG	0.985 ± 0.022
TTTTTCGGCT	0.985 ± 0.044
GTTTACGTTC	1.02 ± 0.049
GGGTTTTCTT	0.961 ± 0.031
ACCTGTTGTT	0.991 ± 0.016
TTAAGACTGT	1.01 ± 0.037
ATTGCGATTC	1.159 ± 0.01

Sequence	switch fluorescence ratio
TCAGCGGTTT	0.96 ± 0.055
GACGTGGTAG	1.03 ± 0.016
TTATCCTGGG	1.01 ± 0.023
CTTCGGTGTG	1.04 ± 0.13
TTTAATTACT	1.04 ± 0.037
GCGATTAGTT	0.9711 ± 0.0012
ATCAAGGTTG	0.978 ± 0.031
CGACTAAGAG	1.02 ± 0.025
TCGGGGATG	1.52 ± 0.83
GGGCCCATTG	0.963 ± 0.04
TTTGCATGCT	1.024 ± 0.0036
GATATGAGCG	1.002 ± 0.0018
GCAGATGATC	1.027 ± 0.0014
TTGCCGGGGG	1.24 ± 0.38
CGGTTTACGG	0.986 ± 0.011
ACACGGGTGC	1.74 ± 0.062
CAGGTTGGTT	1 ± 0.027
TTGTGGGTTG	1.89 ± 1.2
AGAGGGTACG	1.06 ± 0.017
TCAAAGGTTC	1.13 ± 0.16
CTTCAATTAT	1.01 ± 0.029
TAGATGGGAT	0.976 ± 0.014
GTCAGTGTCG	0.962 ± 0.021

Reference: the supplement of paper PMC10126150
